From patent publication US20140037642A1, “METHODS AND COMPOSITIONS RELATING TO INHIBITION OF IGF-1R” (AMGEN INC., priority 2011, published 2014)

Legend:
[1] = target: hu IGF-1R(ECD)-C3-muIgG1Fc (human; mouse); experiment: ORIGEN competition with 1 nM Ru-IGF-1 for IGF-1R(ECD)-C3-muFc on beads
[2] = target: hu IGF-1R(ECD)-C3-muIgG1Fc (human; mouse); experiment: ORIGEN competition with 2 nM Ru-IGF-2 for IGF-1R(ECD)-C3-muFc on beads

Row | Substance | Ki [1] | Max (%), maximum level of inhibition at 1 µM antibody [1] | Ki [2] | Max (%), maximum level of inhibition at 1 µM antibody [2]
1 | murine anti-IGF-1R antibody 1H7 (Santa Cruz Biotechnology) | 16 nM | 89% | 13.1 nM | 99%
2 | murine anti-IGF-1R antibody αIR3 (Calbiochem) | 5.3 nM | 91% | – | –
